Data reported in the supplement of paper PMC10201428.
± gives the standard deviation of the averaged measurements.

Tests used:
[1] = tested on: VchCAST RNA-guided transposition machinery (E. coli BL21(DE3) host, lacZ target); experiment: relative integration efficiency (T-RL orientation) vs wild-type transposon end (log2 (normalized fold change)); transposon end mutated: right end (5 bp flank + 75 bp right end); higher = more efficient transposition
Outline: (§1)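 Barcoded pools of 1549 left-end or 1849 right-end transposon variants were cloned into a pUC57 mini-transposon donor. Each pool was co-transformed with a T7-driven effector plasmid (CRISPR array, tniQ-cas8-cas7-cas6, tnsA-tnsB-tnsC) into E. coli BL21(DE3) and plated with 0.1 mM IPTG at 37°C for 18 h. Input plasmids and genomic integration junctions were PCR-amplified and Illumina-sequenced, with two biological output replicates and four wild-type barcodes as reference. Relative integration efficiency is output/input barcode abundance fold change, normalised to wild-type barcodes and log-transformed.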

[2] = tested on: VchCAST RNA-guided transposition machinery (E. coli BL21(DE3) host, lacZ target); experiment: relative integration efficiency (T-LR orientation) vs wild-type transposon end (log2 (normalized fold change)); transposon end mutated: right end (5 bp flank + 75 bp right end); higher = more efficient transposition
Outline: as §1

Row | Sequence | relative integration efficiency (log2) [1] | relative integration efficiency (log2) [2]
1 | ACATTTGTTGATACAACCATATATTGATATCTCCAACCATAAGTTGATATTTTTCACAACCATAAGTTGATATTTTCTCTGATCATAGTCAGACCAACATTGCTACGACCCGTATTCGCACCGACAC | -0.0557 ± 0.027 | -0.31 ± 0.26
2 | CAAAATGTAAAAAAAACCATACGTTGATTTTACCACCCATAAATTGATAATTAAAACAACCATACCTTGAAATTGCTTATAAAGTGTACAACACTTGAGAAAGTTTACTACAGGTATGCACCGACAC | -4.977 ± 0.011 | -2.89 ± 0.71
3 | ACATTTGTTGATACACCCATAAATTGATATTGCCAACCATAAAGTGATATTTATCACAACCATAAAGTGATATTTACTCTGATCATAGTCAGACCAACATTGCTACGACCCGTATTCGCACCGACAC | -0.684 ± 0.13 | -0.426 ± 0.4
4 | ACATTTGTGGATACAACCATAAAATGATAATTACCACCCATACATTGATAATTATCACACCCATTTAACTATAACGCTCTGATCATAGTCAGACCAACATTGCTACGACCCGTATTCGCACCGACAC | -2.53 ± 0.19 | -0.296 ± 0.095
5 | ACATTTGTTGATACAACCATAAAATGATAATTACACCCATAAATTGATAATTATCCCACCCCATTTAACTATAACGCTCTGATCATAGTCAGACCAACATTGCTACGACCCGTATTCGCACCGACAC | -1.3 ± 0.37 | 2.388 ± 0.023
6 | ACATTTGTTGATACAACCAATAAATGATAATTACACCCATAAATTGATAATGATGACACCGAATTTAACTATAACGCTCTGATCATAGTCAGACCAACATTGCTACGACCCGTATTCGCACCGACAC | -1.56 ± 0.22 | 1.92 ± 0.035
7 | ACATTTGTTGATACAACCATAAAGTGATATTTACACCCATAAATTGATAATTATCACAACCATATATTGATATCTCCTCTGATCATAGTCAGACCAACATTGCTACGACCCGTATTCGCACCGACAC | -0.382 ± 0.084 | -0.0754 ± 0.42
8 | ACATTTGTTGATACAACCATAAAATGAGCCGGCACAAACGCCCGGTCGCCGGCGACACAAACGCCCGGTCGCGGTAAGAGGATCATAGTCAGACCAACATTGCTACGACCCGTATTCGCACCGACAC | -3.42 ± 0.22 | -0.24 ± 0.25
9 | ACATTTGTTTATACAACCATAAAATGATAATTACACCCATAAATGGATAATTATCACACCCAATTTAACTATAACGCTCTGATCATAGTCAGACCAACATTGCTACGACCCGTATTCGCACCGACAC | -1.86 ± 0.27 | -0.232 ± 0.5
10 | ACATTAGTCGATACAACCATAAAATGATAATTACACCCATAAATGGATCATTATCACACCCAATTTAACTATAACGCTCTGATCATAGTCAGACCAACATTGCTACGACCCGTATTCGCACCGACAC | -8.21 ± 0.66 | -5.41 ± 0.28
11 | ACATTTGTTGATACAACCATAAAATGATAATTACACCCATAAATTGATAATTATCACAGGCATAAATTGATATTGCCTCTGATCATAGTCAGACCAACATTGCTACGACCCGTATTCGCACCGACAC | -0.0803 ± 0.09 | 0.567 ± 0.2
12 | ACATTTGTTCATACAACCATAAAATGATAATTACACCCATAAATTGATCATTATCACCCCCAATTTAACTATAACGCTCTGATCATAGTCAGACCAACATTGCTACGACCCGTATTCGCACCGACAC | -1.59 ± 0.39 | 0.514 ± 0.2
13 | ACATTTGTTGATACAACCTATTAATGATAATTACACCCATAAATTGATAATTATCACACCCATAAATTGATATTGCCTCTGATCATAGTCAGACCAACATTGCTACGACCCGTATTCGCACCGACAC | -0.905 ± 0.052 | -1.46 ± 0.16
14 | ACATTTGTTGATACAACCATAAAATGATAATTCACAAACGCCCGGTCGCCGGCGACACAAACGCCCGGTCGCGGTAAGAGGATCATAGTCAGACCAACATTGCTACGACCCGTATTCGCACCGACAC | -1.9 ± 0.14 | 1.4 ± 0.079
15 | ACATTTGTTGATACACCCATAAATTGATAATTACAACCATAAGTTGATATTTTTCAGTGGGTATTTAACTATAACGCTCTGATCATAGTCAGACCAACATTGCTACGACCCGTATTCGCACCGACAC | -0.128 ± 0.33 | 2.821 ± 0.028
16 | ACATTTGTTGATACAACCATAAAATGATAATTACACCCATAAATTGATAATTATCACACCCATAAATTGATATTGCCTCTGATCAGGCAGTGAGCGCAACGCAATTTAGTCAGACCAGCACCGACAC | -0.283 ± 0.16 | -0.287 ± 0.16
17 | ACATTTGTTGATACAACCATAAAATTCTAATTACACCCATAAATTGATAATTATCACACCCATAAATTGATATTGCCTCTGATCATAGTCAGACCAACATTGCTACGACCCGTATTCGCACCGACAC | -1.85 ± 0.18 | -1.38 ± 0.16
18 | ACATTTGTTGATACAACCATAAAATGATAATTACACCCATAAATTGATAATTATCACACCCATAAATTGATATTGCCTCTTCTTTGCTCACGCATCTAGTCGGTCCACGTTTGGTTCGCACCGACAC | -0.231 ± 0.37 | -0.129 ± 0.28

Row | Sequence | relative integration efficiency (log2) [1] | relative integration efficiency (log2) [2]
19 | ACATTTGTTGATACAACCATAAAATGATAATTACACCCATAAATTGATAATTAAGACACCCATAAATTGATATTGCCTCTGATCATAGTCAGACCAACATTGCTACGACCCGTATTCGCACCGACAC | -0.306 ± 0.23 | -0.137 ± 0.32
20 | ACATTTGTTGATACAACCTTAAAATGATAATTACACCCTTAAATTGATAATTATCACACCCTTAAATTGATATTGCCTCTGATCATAGTCAGACCAACATTGCTACGACCCGTATTCGCACCGACAC | -1.34 ± 0.22 | -0.505 ± 0.42
21 | ACATTTGTTCATACAACCCTAAAATGATAATTACACCCATAAATTGATCATTATCACCCCCAATTTAACTATAACGCTCTGATCATAGTCAGACCAACATTGCTACGACCCGTATTCGCACCGACAC | -2.63 ± 0.59 | -0.724 ± 0.35
22 | ACATTTGTTGATACACCCATAAATTGATATTGCCAACCATAAGTTGATATTTTTCACAACCATAAAGTGATATTTACTCTGATCATAGTCAGACCAACATTGCTACGACCCGTATTCGCACCGACAC | -0.583 ± 0.25 | -0.457 ± 0.31
23 | ACATTTGTCGATACAACCATAAAACGATAATTACACCCATAAATTGATAATTATCACACCCAATTTAACTATAACGCTCTGATCATAGTCAGACCAACATTGCTACGACCCGTATTCGCACCGACAC | -1.38 ± 0.25 | 2.07 ± 0.094
24 | ACATTGGTCGATACAACCATAAAATGATAATTACACCCATAAATTCATAATTATCACACCCAATTTAACTATAACGCTCTGATCATAGTCAGACCAACATTGCTACGACCCGTATTCGCACCGACAC | -7.939 ± 0.019 | -7.44 ± 1.2
25 | ACATTTCTGGATACAACCATAAAATGATAATTACACCCATAAATTGATAATTATCACACCCAATTTAACTATAACGCTCTGATCATAGTCAGACCAACATTGCTACGACCCGTATTCGCACCGACAC | -1.94 ± 0.42 | 0.495 ± 0.035
26 | ACATTTGATGATACAACCATATAATGATAATAACACCCATAAAATGATAATTATCACACCCAATTTAACTATAACGCTCTGATCATAGTCAGACCAACATTGCTACGACCCGTATTCGCACCGACAC | -1.61 ± 0.26 | 1.073 ± 0.0088
27 | CACGGTGTTGATACAACCATAAAATGATAATTACACCCATAAATTGATAATTATCACACCCATAAATTGATATTGCCTCTGATCATAGTCAGACCAACATTGCTACGACCCGTATTCGCACCGACAC | -0.141 ± 0.051 | 0.107 ± 0.15
28 | ACATTTGTTGATACAACCATAAAATGATAATTAACAACATAAATTGATAATTATCACACCCATAAATTGATATTGCCTCTGATCATAGTCAGACCAACATTGCTACGACCCGTATTCGCACCGACAC | -0.394 ± 0.018 | -0.921 ± 0.31
29 | ACATTTGTTGATACAACCATAAGTTGATATTTTCAACCATATATTGATATCTCTCACACCCATAAATTGATATTGCCTCTGATCATAGTCAGACCAACATTGCTACGACCCGTATTCGCACCGACAC | -0.363 ± 0.0055 | -0.117 ± 0.12
30 | ACATTTGTTGATACACCCATAAATTGATATTGCCACCCATAAATTGATATTGCTCACAACCATATATTGATATCTCCTCTGATCATAGTCAGACCAACATTGCTACGACCCGTATTCGCACCGACAC | -1.05 ± 0.22 | 0.239 ± 0.14
31 | ACATTTGTTGATACAACCATAAAATGATAATTACACCCATAAATTGATAATTATCACACCCATAAATTGATATTGCCTCTGATCATTTGCATAAAAATTCATCTAGTCAGACCAACAGCACCGACAC | -0.15 ± 0.36 | -0.0028 ± 0.22
32 | ACATTTGTTGATACAACCATAAAATGATAACACCCATAAATTGATAATTATCACACCCATAAATTGATATTGCCTCTGATCATAGTCAGACCAACATTGCTACGACCCGTATTCGCACCGACACTGA | -3.99 ± 0.2 | -1.25 ± 0.2
33 | ACATTTGTTGATACAACCATAAAATCATCATTACCCCCATAAATTGATAATTATCACACCCCATTTAACTATAACGCTCTGATCATAGTCAGACCAACATTGCTACGACCCGTATTCGCACCGACAC | -3.71 ± 0.07 | -0.211 ± 0.014
34 | ACATTTGTTGATACAACCATAAAATGGTAATTCCACCCATACATTGATAATTATCACACCCAATTTAACTATAACGCTCTGATCATAGTCAGACCAACATTGCTACGACCCGTATTCGCACCGACAC | -3.15 ± 0.33 | 0.391 ± 0.15
35 | ACATTTGTTGATACACCCATAAATTGATAATTACAACCATAAAGTGATATTTATCAGTGGGTATTTAACTATAACGCTCTGATCATAGTCAGACCAACATTGCTACGACCCGTATTCGCACCGACAC | -0.744 ± 0.28 | 2.08 ± 0.1
